Experiment [1] concerns the target T1, soluble PSCA fused human IgG1 or mouse IgG2a Fc (UniProt O43653 12-86, limits assumed).
T1 construct: also called PSCA-Fc; not shown: human IgG1 Fc or mouse IgG2a Fc
T1 sequence (looked up): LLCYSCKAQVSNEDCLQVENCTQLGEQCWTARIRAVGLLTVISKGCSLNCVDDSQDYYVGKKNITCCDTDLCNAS
Description: competitive ELISA on coated PSCA-Fc, biotinylated mu1G8 as tracer. The protocol:
(§1) The relative binding affinities of the antibodies were measured by competitive ELISA using biotinylated mu1G8 as tracer. Wells were coated with soluble PSCA fused human IgG1 or mouse IgG2a Fc that had been expressed in pEE12 as described above and purified by Protein A affinity chromatography (Poros2.0; PerkinElmer, Wellesley, Mass.). A fixed concentration of biotinylated parental antibody and increasing concentrations of non-biotinylated competitors were used as previously described (Olafsen 2004). Detection of biotinylated antibody was made with alkaline phosphatase-conjugated streptavidin (Jackson ImmunoResearch Laboratories).

Experiment [2] deals with T1, soluble PSCA fused human IgG1 or mouse …. Kind of experiment: relative binding affinity, competitive ELISA. The protocol:
as §1
Background: An ELISA detects its analyte on a solid surface through an enzyme-linked reagent.

B1: humanized 1G8 antibody hu1G8-B (antibody, V domains shown)
VH: EVQLVESGGGLVQPGGSLRLSCAASGFNIKDYYIHWVRQAPGKGLEWVAWIDPENGDTEFVPKFQGRATISADTSKNTAYLQMNSLRAEDTAVYYCKTGGFWGQGTLVTVSS
VL: DIQLTQSPSSLSASVGDRVTITCSASSSVRFIHWYQQKPGKAPKRLIYDTSKLASGVPSRFSGSGSGTDFTLTISSLQPEDFATYYCQQWSSSPFTFGQGTKVEIK
notes: Labelled with 124I in the immunoreactivity assays; also called M6B; clone 2B3
In general, Kd refers to the constant that tells how readily two partners part at equilibrium. For B1, in experiment [1], the Kd was around 25 nM. Besides, in experiment [2], the “fold higher relative binding affinity compared to hu1G8-A” value is 6 fold and the “fold lower binding affinity than mu1G8” value was around 5 fold.

B2: humanized 1G8 antibody hu1G8-A (antibody, V domains shown)
VH: EVQLVESGGGLVQPGGSLRLSCAASGFNIKDYYIHWVRQAPGKGLEWVAWIDPENGDTEFADSVKGRFTISADTSKNTAYLQMNSLRAEDTAVYYCKTGGFWGQGTLVTVSS
VL: DIQLTQSPSSLSASVGDRVTITCSASSSVRFIHWYQQKPGKAPKRLIYDTSKLASGVPSRFSGSGSGTDFTLTISSLQPEDFATYYCQQWSSSPFTFGQGTKVEIK
notes: also called M6A
Consider B2, for which the dissociation constant Kd in experiment [1] is around 150 nM.

B3: murine monoclonal antibody 1G8 (antibody, V domains shown)
VH: EVQLQQSGAELVRSGASVKLSCTASGFNIKDYYIHWVNQRPDQGLEWIGWIDPENGDTEFVPKFQGKATMTADIFSNTAYLHLSSLTSEDTAVYYCKTGGFWGQGTLVTVSA
VL: QVVLTQSPAIMSASPGEKVTMACSASSSVRFIHWYQQKSGTSPKRWIYDTSKLASGVPTRFSGSGSGTSYSLTISTMEAEDAATYYCQQWSSSPFTFGSGTKLIIK
notes: Intact murine antibody from hybridoma; also called mu1G8; parental mu1G8
On to B3, for which, in experiment [1], the Kd was around 5 nM.

The values above are taken from patent publication US20060269557A1 (CITY OF HOPE, published 2006).
